Data on one substance can be found in article PMC3641820.

In this assay the target is Recombinant Borrelia burgdorferi HtrA (HtrABb, BB0104) with intact N-terminal His-tag (Borrelia burgdorferi strain B31A3). As to the kind of experiment: SEC.

Turning to “Recombinant Borrelia burgdorferi HtrA (HtrABb, BB0104) with intact N-terminal His-tag (enzyme)”, the stoichiometry N worked out at 3.
